Laboratory results reported in patent publication US20040037820A1 (published 2004).

Target: T1, VEGFR-3 full-length extracellular domain (Homo sapiens (Human), UniProt P35916 25-775)
T1 construct: the construct is not described; also called the full-length extracellular domain
T1 sequence: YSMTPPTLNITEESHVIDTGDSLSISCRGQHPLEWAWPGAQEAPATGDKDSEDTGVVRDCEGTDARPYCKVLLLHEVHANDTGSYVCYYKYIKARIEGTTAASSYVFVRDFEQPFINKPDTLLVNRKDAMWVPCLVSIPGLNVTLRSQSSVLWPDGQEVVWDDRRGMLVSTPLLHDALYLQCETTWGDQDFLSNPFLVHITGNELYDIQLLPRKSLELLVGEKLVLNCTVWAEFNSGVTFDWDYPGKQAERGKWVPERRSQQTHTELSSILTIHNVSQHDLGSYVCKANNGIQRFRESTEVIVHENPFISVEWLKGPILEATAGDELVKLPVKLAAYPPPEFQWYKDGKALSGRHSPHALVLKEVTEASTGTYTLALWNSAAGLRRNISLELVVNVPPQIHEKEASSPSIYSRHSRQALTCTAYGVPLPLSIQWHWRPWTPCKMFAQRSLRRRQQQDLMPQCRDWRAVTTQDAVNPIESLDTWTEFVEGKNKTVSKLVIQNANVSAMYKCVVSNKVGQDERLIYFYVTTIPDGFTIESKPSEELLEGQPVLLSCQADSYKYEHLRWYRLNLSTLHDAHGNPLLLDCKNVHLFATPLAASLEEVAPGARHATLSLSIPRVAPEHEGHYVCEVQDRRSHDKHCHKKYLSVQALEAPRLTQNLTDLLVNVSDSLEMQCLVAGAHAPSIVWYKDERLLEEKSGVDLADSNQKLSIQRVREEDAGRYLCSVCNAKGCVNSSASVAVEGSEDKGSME
Experiment: not described

binding result: binds
B1: VEGF-D (ligand)
chain: FYDIETLKVIDEEWQRTQCSPRETCVEVASELGKSTNTFFKPPCVNVFRCGGCCNEESLICMNTSTSYISKQLFEISVPLTSVPELVPVKVANHTGCKCLPTAPRHPYS
notes: Bought protein; also called vascular endothelial growth factor D
